Experimental findings from a protein production outcome set (Wang et al. 2014) are described below.

This data set is described as follows: label from the status in PepcDB records.
Consider “VRISRPDVLLNIHIAQTTCTLSLDSSGESLHRRGYRQEAVEAPLNEVLAAGMILMTGWKGECDLIDPMCGSGTIPIEAALIARNIAPGVFRKEFAFEKWGDFDQNLFDRIYNDDSQEREFTHKIYGYDNNPKANEIATHNVKAAGVSKDIILKLQPFQQFEQPAEKSIIITNPPYGERISTNDLLGLYNMIGERLKHAFVGNDAWILSYREECFDQIGLKPSVKTPLFNGPLECEFRKYQIFDGKY”, for which the protein production result was “failed”. For “MGGGDGRRIDAFVSYSRAADSRLAPSIQRGLARLAKKWYRTRALNVFRDQTDLSASHALGASIERALADARFFVLLASPAAAESKWVAKEIEFWQRNRTSDTFLVALTDGTIRWDDEAGDFDWSVTDALPRSLSGYFEAEPLWQDLTWSRDADRLSLWHAGFRDAVATLAAPIHGSSKRALDNAEVKEHRALLLVGALATALILTLAVSFGIQYWFATAERDRANANARDATVMSAIQRAQVELADAETGYDVSAYRRLMAARSLAGRPSVEGAAYDAALDAAYSRPNLLRVTEVDSGPDSRAAMTVDGGRVAFGGKEQPTLWSPGTGRPSGPALEAAETTDSKALALAFSRDGKRLAAAYEAAVVLWDVASGKKINEFATDRRTTTSLALSPDGTTVAVAGGGLRIWDAGSGRRIGEPLGVTGDRVVFSPDGRKLAFDALNDGGSEVHVRGVGAEGAGEVVIPYPHDVISGIAFTPDTDALAVGTEDGGLRLWDPDSGAAEGRAMSGHQGAIRAIAFAAGGSRIATAGADRTIRQWNAETGSPIGFPLTGHAGPVDFIAFSRGGSELVSLGEDATLRRWDAGNALLRTGPDDASAPDALAVAPRGAKVAVGGREGVRVFNQETGVQVAALDLPQGVLSLSYSPDGTSLLIVSPDALRLWEEGAEARTVTLDSSVGPVAGAAFMPHGRQIVVGSYAGKLLFEDLDDEATGTPGASIDITCAARHLAVSQDGMQVAYACDDTGGVADAEAGGVRTFEAEDRVSALVISPDGRTLILGTLDGTLWRLEHGAEALVGVGVHRGAVRSVAYGPDGRWFASAGEDGSVVVHPHGAREISARIPAHTGPVEAVAFSGDGSRLISLGADKAARVWHVFRDPPGDLCERITYNMSESDWKKWISDSFGYRDQCAGKPRAHG”, the protein production entry was “failed”.

As for “MSLSTIRIGGAAVNQTPIDWENNVKNILDAIEEAKNANVEILCLPELCITGYGCEDLFLTDWVAETAIEYCFEIAASCTDITVSLGLPMRIAGITYNCVCLVENGIVKGFSAKQFLANEGVHYETRWFTAWPRNHTTTFLYNDVKYPFGDVLYNVKDARIGFEICEDAWRTDRVGIRHYEKGATLVLNPSASHFAFGKSAIRYDLVIGGSERFDCTYVYANLLGNEAGRMIYDGEVLIAHKGKLIQRNDRLSFKNVNLIYADIATDSAETPETVLTQDDLEKEFEFWEATSLGLFDYMRKSRSKGFVLSLSGGADSSACAIMVAEMIRKGLKELGLTAFLQKSNMETLFDLPALQHLPFEEQAKKITAVFLTTAYQSTRNSGDETYTSAKTLAESIGATFYNWSVDEEIEQYKATIENVIERPLTWEKDDITLQNIQARGRAPIIWMLTNVKQALLITTSNRSEGDVGYATMDGDTAGGIAPIAGVDKDFIRSWLRWAEKNRNQHGLHIVNKLAPTAELRPSEYTQTDERDLMPYDVLARIERKAIKERLSPVQVYTALLTEGPYTKNEFKYWVKKFFRLWSINQWKRERLAPSFHMDDFNIDPRSWYRFPILSSGFAKELNDLDQEGHHHHHH”, the protein production result was “not failed”. The same measure for “MVYPRMGRVPLPPKGAQHYTTMCQFCNVGCGYDVYVWPAGAEGSPEPGGHGIEYKIVDEAYGRNLVKQPDFTKEHTGLSAEEGEPWISEAMVVKTIRRTWERGRGTGGWREVYVAQVPSPECPINWGNHSVRGGTQAERIWSPWNIAGERRLTKPLVRFGGRLEPVSWEYAIDLVARVVKGVIDKWGIERPGWGKEGHAVFAHRMDHGGGGGGGMIFNTVVGLFFFYGVRTAFARIHNRPFFGPENPAAGDAGPGAMNTSYHDLRLADTIILWGNNPYSTATVMFVKHVLDNLRGATKAEKQRWFNPGEPVIDSRIIIVDPRRTETVEAAEAAAGKDRVLHLQVKPGTDIVLANAIARVIYERYGDVVEEFVNHYRSAAGWGFKWDEEGFQKYVSEALQVGEETLDEVLAEAESITGVPRDKIELAAKWIAERKEGGYPKRVWLMYEKGIIWNQNYRSIYSLFDLCMIAGATRGLPGCGCQRQGGHQEGFASPAPPPPPWTDERHHIAYPDKSLYDEYYNTKYPRADFYMPTTDFRLANGEGKVLWVIDMDNYRLAPNSQRLKAVVGDRAWRVTRYVFAEAYANVGGKESEPNYDPNALEPVITTPPSSREYAEKVLQALEETGGLFVIVEDIYPTFMVEDAHVVLPAAFNNGEWPDVRMGVHERRFRIADAWLDPPGEAKPDWWILANVAKRIVELYEEEGRGGDPVAERFRKAFKPIWDAMEANARDPTVEVENEIFKTYIANADEAYARLGVHWEVQYWTPEFKKLDLNILRKLRTIGTVLPITKLDVKPDGTIEVRGVVNIMEPALNDTYREEVVVVKPDGTIVRRIEVVPSNETVRSYVPGHLKPWPAVWDKYPPYVDELIRKGYKYWVVNGRYNAIWQTGYADPNVVEIMARHPMNIVQVNPEDAAKEGLENGDIVVIYNDYGSTTAMVWVTRVVAPGTIFLIMAHPKAVGANAVTTPSVDPAAQNPDYKLTLANLRKIGRADETIIKKVTFKDIRFAVR”: “failed”. For the sequence “MMYFGIIPLILFIIFLISYLKDPRKIINGFLFNAFICFFLLFCVIVSLNSDSDVLRYIIFLPFLALLIMLPFGIVALMFGLFLNARILMKREGRRFTNCLTLLAALGMLFFMLLPIINPASLVSSHLEPIFAAISLISIYFFIHLSNFLSAYFLYQFNRPRRNQDFIIVLGSGLINDKVPPLLASRINKAIDFYWKQAAVNTPPTIIFSGGQGPDEGLPEAEAMQNYAVEKGIPIEHTVQENRSVNTYQNMLFSKEIMDSLKPEGKYKSIFTTNNFHLFRAGIYARQAGLNSQGIGSKTAFYYWPNAMIREYVAIVVMGRKRHMKICGTILGFAVFVSILSFIFS”, the protein production entry was “failed”.

As to “AQTDPSQLKKEGSDAFNAKNYPVAYAKFSEYLKQTNNQDSAIAYYCGMAADEVKKYAEAVTFFDIAIQKKFNIGNAYARKALALDAMKKTDEYVATLEEGLKVDPDNKTMIKNYGLHYLKAGIAAQKAGKVEEAEECFKKVIPLDHKTYKTNALYSLGVLCYNDGANILKKAAPLANSDADKYAAEKEKADGRFKEAIGYLEEATKVSPEDTKSKTMLSQVQAAMK”, the protein production result is on record as “not failed”. For the sequence “MTSIHVQVPATTANIGAGFDCLGAALSLHNQFQFRLAGESEPFFSLELVGADVETQKLEATADNLLYRAFAKVFATLGQPVPHVNIAIDLKVPLSRGLGSSATAIVGGLVGANALAGSPLSQREIMNLAIEMEGHPDNVVPALLGGCQLSVKHQQDWVI”, the protein production result is “failed”. The same measure for “MRKKEENLNTASGLRIAMILLGIAVTPVLLSSSSLGNQLSSSSLISVVLLGGVILTLLSAITISVGEKARLPTYGIVKYSFGEKGAIAINILMAISLFGWIAVTANMFGHSVHDLLAQHGLEVPLALLVAAGCVIFVASTAFGFTVLGKIAQVAVPVIALVLCYILYVATHTEVAVPAAIVEMNTGVAVSTVVGTIIVLVATLPDFGSFVHNRKHALIAAGVTFLVAYPLLYWAGATPSAISGQGSLLGAMAVFGAVLPAALLLIFACVTGNAGNMFQGTLVVSTLLTRFPKWQITVALGILSAIVGSMDIMAWFIPFLLFLGIATPPVAGIYIADFFLYRRNGYQESVLAQESQIKVLTFAAWIIGAAVGFMTVKGLFTLTTIPSVDSILVACIAYAILSRASQHR”: “failed”. “MRLVERHIVKTNHQFYKEIDDLAWRSKNLYNYVNYLVRQSFIFDGKYLNNAAIFHLVKHHESYTALPRKVSNQVLMVLHRNWKSFFETHKAYKQNPSKFKGCPKLPKYKNKEKGRNIVIYELGAISKPLLKQGVIKLSQTEIQFPTKASNIQQVRLIPQCGQYVVEVVYLQDATPQQLNPDWVAGIDIGLDNLAALTSNKPGFKPVLVNGRPLKAINQQYNKAKARLQSQLKGNAKTSRRIQALTCKRNNRIDNYLHNASRWIINHLASAGIGTLVIGKNDQWKQEINLGTTTNQNFVSIPHARFIEQLKYKAELVAMTVLINEESYTSASSFLDLDPIPVYQEGVKHSFSGKRIKRAWYQSANGRFIHADINASLNITRKVVPAAFSLGIAGIAVCPSRITPGKVAI”: the protein production entry was “failed”. “MSYIPPHKRHSKDPTKPTPVPDSLVTKFKKNLDFKSSTSSVKRNKIIYSGDSISKWFLVGSNGIEDDVPSYVKFVPLSSDSVECRKGEKPSILMNNNVQNVNMNIGERKDERTQWLLVAEKVMEDLVLAYERVKTEMKEHHHVSRLVARFGKIFFYGSQAGPVAECSLKNLNKMFSTDLPMSYLQHIKSNVVPSHGFSIDKEKETYTVKVSHYSRPNATINCKCTRKEDGRLSMYKASLEFYVDLNPVRHLVVDVSCIDKNLDMRLTLTAKREITYLSDKEIGDIKALLESATVDPNVKGGLRWPFGKALSEDGYKEFEVCHVRATIYKNKTLRLRVRETDRFNETTGTGETKREVSLTLKDIDTKIQEQNTERGCVLEMLRDALGTIWDFLHCDAYLT”: the protein production entry was “not failed”.

For the sequence “MFLNYFALGVLIFVFLVIFYGIIAIHDIPYLIAKKRNHPHADAIHTAGWVSLFTLHVIWPFLWIWATLYQPERGWGMQSHVASQEKATDPEIAALSDRISRLEHQLAAEKKTDYSTFPEI”, the protein production entry is “failed”. “MSYKVEAVPDSYAALGEGPHWDVDRQSLYYVDLESAGINRYDFKQNKVYRAKIEGEIFASFILPVENKPQEFAVGCGLRTVIVQWDGVSAVAKVTRTLFEVQPDLKENRLNDAKTDPNGRFYGGTMADSGDIFTQWKGELYSWQAGGQPNAIRSKVGISNGLAWDVKAKKFYFIDTNNHEVLAYDYNQSTGAVSNPKVIFDLRKIRPEGPLFPDGMTVDTDGNIYVATFNGGTVFKVNPSTGKILLEIKIPTTQITSVAFGGPNLDILYVTTANKFDQPKPAGTTFQVTGLNAKGYAGVNLKI”: the protein production result is “failed”. The same measure for “LEKNDLVYMQRAFELNDKVAKDIMIDRTQLVVIDITSTVKEALNVYLQERFSRLPVVADNDKDKVLGYVYNYDLTRQQQVDSSVRVDKLIRDISTTPETTPITQVLQQMIKKRTPIVVVVDEYGGTSGIITDKDIYEEL”: “failed”. The same measure for “MKDPLLNSLIYVSRYYGLANSPEALVNGLPLSDGKLTPFLLPRAAERAGLVAKENRAELEKISSLILPAILVLKGGDSCVLNSINMETREAEVTTLESGMVPISIPLEDLLEQYTGRYFLVKKQFR”: “not failed”.

As for “MNKGNTLDSIPTDLILEIFSRLSAKSVGRLRCLSKLWRKGEWFFFSSLQPQNLYEKPFLVVAADFHMKFSEDMSHDIYSYASGLIYFPKMLIENEKSGAIRVICNPITGQYAILPKLITLQAARSFLGFDPIDNQFKVLLVNNDIVNNDMDILTLGIGELMSEKLKFIEAKCFFALDDVQLINYKGKLGGISWNNHEVAPVELSMWVLEDVEKQEWSKNVYILPKNVVPNNWLHAAGVTVEGDIVFSEAVVSNPFDVFYFNPEKNTLQHVETHCNHEVFDDENLVNIFVDHVEDLKFDVMKPTYAATSIRPTEQKHKPTSTETSMSRKDHQVRTIDQPQQDRCTFESINNKFDVMCLLDDD”, the protein production result was “not failed”.

As for “DSLKAEVNTLFARFDEQPLAAASIAQVHTAALFDGREVIVKVTRPNIRTQILQDFEIISWLGQSLESRLEAARALHLSEIIQDYRQIILNELDLTLEADNTRRMRHYFTGSSMMYVPEVY”, the protein production entry is on record as “not failed”. With “MEVTLLGTGDTTGTPTVQCDCDTCERARDPDEELRANVRERGIDPTGGVERSRFSVAVENDTTGESLLVDLSPDFRHQFLRESVPLPDAAIITHIHFDHLDGLGNAYRLFDELPVHAADETDPVTDESVAEAVRSRYDYLDTVSVHAQTPLEPFTVAGFEVTLVPVTHPPLLCYGLRIEEPQTGAVLSISGDTCYDVPDRSKSVLTGADLALVEGIVHPEACEYHPKGGTHHNEDGVPRTFGTKHMTLPGARDFAADIEADDYRIVHTAHYVPADRAFADDIGLDGEQFML”, the protein production result is given as “failed”.
